Target: purified NTRI ectodomain (FLAG-NTRI, Fc removed) (human) (UniProt Q9P121)
Assay: AUC

- Kd: 110 nM
- percent dimer at 2.0 uM: 50%
- percent dimer at 10 uM: 87%
- stoichiometry N: 2
Substance: purified NTRI ectodomain (FLAG-NTRI, Fc removed) (from UniProt Q9P121 34-321) (domain or fragment)

Reference: paper PMC6609445
